Target: MCM8-9 complex, purified (human, UniProt Q9NXL9-1 1-1143; Q9UJA3-1 1-840)
Test: cell-based or functional assay

Chain of MCM8-9 complex, purified (Q9NXL9 whole entry, chain 1 of 2): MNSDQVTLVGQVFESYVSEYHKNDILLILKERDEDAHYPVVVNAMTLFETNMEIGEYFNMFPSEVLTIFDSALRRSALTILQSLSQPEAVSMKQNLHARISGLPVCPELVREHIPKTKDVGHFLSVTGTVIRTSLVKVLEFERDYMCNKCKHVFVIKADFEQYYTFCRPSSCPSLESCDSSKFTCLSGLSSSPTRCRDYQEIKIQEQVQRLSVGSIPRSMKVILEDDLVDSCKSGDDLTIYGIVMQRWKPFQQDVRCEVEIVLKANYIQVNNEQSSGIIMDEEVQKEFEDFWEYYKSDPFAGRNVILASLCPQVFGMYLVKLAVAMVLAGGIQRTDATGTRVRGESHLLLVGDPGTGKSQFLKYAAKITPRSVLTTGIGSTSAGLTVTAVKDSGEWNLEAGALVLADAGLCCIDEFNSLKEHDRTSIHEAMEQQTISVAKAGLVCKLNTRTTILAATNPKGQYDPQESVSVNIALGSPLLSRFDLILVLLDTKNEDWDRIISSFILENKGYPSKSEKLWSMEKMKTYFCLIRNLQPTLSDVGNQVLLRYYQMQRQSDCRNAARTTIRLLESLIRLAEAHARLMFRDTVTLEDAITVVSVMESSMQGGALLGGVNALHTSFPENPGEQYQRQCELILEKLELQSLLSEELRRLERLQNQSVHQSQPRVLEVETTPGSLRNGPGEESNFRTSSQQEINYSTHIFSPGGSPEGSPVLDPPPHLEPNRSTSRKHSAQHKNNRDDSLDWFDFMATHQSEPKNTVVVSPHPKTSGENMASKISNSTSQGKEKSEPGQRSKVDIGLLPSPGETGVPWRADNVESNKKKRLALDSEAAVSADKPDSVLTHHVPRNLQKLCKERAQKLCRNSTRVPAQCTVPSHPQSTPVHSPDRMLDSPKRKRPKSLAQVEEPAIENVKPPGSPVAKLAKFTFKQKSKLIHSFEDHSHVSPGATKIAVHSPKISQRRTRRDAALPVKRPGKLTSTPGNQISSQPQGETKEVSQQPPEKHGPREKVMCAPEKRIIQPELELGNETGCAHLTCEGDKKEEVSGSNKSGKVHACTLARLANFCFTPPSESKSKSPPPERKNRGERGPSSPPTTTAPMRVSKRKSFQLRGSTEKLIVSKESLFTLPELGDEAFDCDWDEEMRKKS
Chain of MCM8-9 complex, purified (Q9UJA3 whole entry, chain 2 of 2): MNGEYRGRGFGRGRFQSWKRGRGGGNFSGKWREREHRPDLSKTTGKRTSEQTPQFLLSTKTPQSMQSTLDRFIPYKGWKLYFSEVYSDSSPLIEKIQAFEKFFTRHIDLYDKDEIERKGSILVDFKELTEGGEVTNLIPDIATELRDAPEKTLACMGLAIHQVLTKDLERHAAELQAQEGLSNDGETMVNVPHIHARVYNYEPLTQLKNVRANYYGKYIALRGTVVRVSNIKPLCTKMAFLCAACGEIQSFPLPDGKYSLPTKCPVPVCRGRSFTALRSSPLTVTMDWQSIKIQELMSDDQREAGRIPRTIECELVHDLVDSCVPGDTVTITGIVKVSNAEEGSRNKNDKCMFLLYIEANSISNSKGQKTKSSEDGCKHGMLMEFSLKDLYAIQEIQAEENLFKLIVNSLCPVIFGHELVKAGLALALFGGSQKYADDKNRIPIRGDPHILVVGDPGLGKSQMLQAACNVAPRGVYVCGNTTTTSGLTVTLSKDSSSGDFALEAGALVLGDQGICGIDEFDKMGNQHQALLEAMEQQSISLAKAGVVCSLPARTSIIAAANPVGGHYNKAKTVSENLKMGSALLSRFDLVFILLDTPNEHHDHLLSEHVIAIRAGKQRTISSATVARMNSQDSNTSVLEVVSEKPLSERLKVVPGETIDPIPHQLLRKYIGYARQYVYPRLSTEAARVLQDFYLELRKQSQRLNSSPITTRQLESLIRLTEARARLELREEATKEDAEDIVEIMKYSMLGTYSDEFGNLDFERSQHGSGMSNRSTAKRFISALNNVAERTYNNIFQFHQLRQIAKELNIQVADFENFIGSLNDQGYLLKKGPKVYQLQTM

B1: MCM8IP-FLAG WT (recombinant) (natural protein, human, UniProt Q8N3J3-4 1-646, looked up)
chain: MACSLQKLFAVEEEFEDEDFLSAVEDAENRFTGSLPVNAGRLRPVSSRPQETVQAQSSRLLLLHPTAPSEALGLPDLDLCLPASSTPSADSRPSCIGAAPLRPVSTSSSWIGNQRRVTVTEVLRETARPQSSALHPLLTFESQQQQVGGFEGPEQDEFDKVLASMELEEPGMELECGVSSEAIPILPAQQREGSVLAKKARVVDLSGSCQKGPVPAIHKAGIMSAQDESLDPVIQCRTPRPPLRPGAVGHLPVPTALTVPTQQLHWEVCPQRSPVQALQPLQAARGTIQSSPQNRFPCQPFQSPSSWLSGKAHLPRPRTPNSSCSTPSRTSSGLFPRIPLQPQAPVSSIGSPVGTPKGPQGALQTPIVTNHLVQLVTAASRTPQQPTHPSTRAKTRRFPGPAGILPHQQSGRSLEDIMVSAPQTPTHGALAKFQTEIVASSQASVEEDFGRGPWLTMKSTLGLDERDPSCFLCTYSIVMVLRKAALKQLPRNKVPNMAVMIKSLTRSTMDASVVFKDPTGEMQGTVHRLLLETCQNELKPGSVLLLKQIGVFSPSLRNHYLNVTPNNLVHIYSPDSGDGSFLKPSQPFPKDSGSFQHDVAAKPEEGFRTAQNLEAEASPEEELPEADDLDGLLSELPEDFFCGTSS
DNA unwinding (helicase assay): 32P-labelled oligo annealed to M13mp18 ssDNA, MCM8-9 100 nM, MCM8IP 50 nM, with ATP: ~6 fold

Reference: paper PMC7290032 (Nature Communications, 2020)
